For test [1], the target named is T1, ROR1 naturally expressed on human tumor cell lines (A549, Jeko-1, SW620, PA-1) (human, UniProt Q01973 30-937).
T1 construct: whole, on cells; also called cells expressing ROR1
Description: FACS on PA-1 cells naturally expressing ROR1.

Test [2] deals with T1, ROR1 naturally expressed on human tumor …. Put plainly: FACS on SW620 cells naturally expressing ROR1.
The target is the same in test [3]. Put plainly: cell-based or functional assay.
The target is the same in test [4]. Put plainly: FACS on SW620 cells naturally expressing ROR1. The source holds these as a separate data set.
Test [5] has the same target. Put plainly: FACS on SW620 cells naturally expressing ROR1. The source holds these as a separate data set.
For test [6] the target is unchanged. Put plainly: FACS on PA-1 cells naturally expressing ROR1. The source holds these as a separate data set.
Test [7] deals with T2, human ROR1 on stably transfected cells (NCI-H1993-ROR1, MDA-MB-468-ROR1, NCI-H1975-ROR1, 293T-ROR1-NF-kB) (human, UniProt Q01973 30-937). Put plainly: cell-based or functional assay.
T2 sequence (Q01973 30-937 limits assumed): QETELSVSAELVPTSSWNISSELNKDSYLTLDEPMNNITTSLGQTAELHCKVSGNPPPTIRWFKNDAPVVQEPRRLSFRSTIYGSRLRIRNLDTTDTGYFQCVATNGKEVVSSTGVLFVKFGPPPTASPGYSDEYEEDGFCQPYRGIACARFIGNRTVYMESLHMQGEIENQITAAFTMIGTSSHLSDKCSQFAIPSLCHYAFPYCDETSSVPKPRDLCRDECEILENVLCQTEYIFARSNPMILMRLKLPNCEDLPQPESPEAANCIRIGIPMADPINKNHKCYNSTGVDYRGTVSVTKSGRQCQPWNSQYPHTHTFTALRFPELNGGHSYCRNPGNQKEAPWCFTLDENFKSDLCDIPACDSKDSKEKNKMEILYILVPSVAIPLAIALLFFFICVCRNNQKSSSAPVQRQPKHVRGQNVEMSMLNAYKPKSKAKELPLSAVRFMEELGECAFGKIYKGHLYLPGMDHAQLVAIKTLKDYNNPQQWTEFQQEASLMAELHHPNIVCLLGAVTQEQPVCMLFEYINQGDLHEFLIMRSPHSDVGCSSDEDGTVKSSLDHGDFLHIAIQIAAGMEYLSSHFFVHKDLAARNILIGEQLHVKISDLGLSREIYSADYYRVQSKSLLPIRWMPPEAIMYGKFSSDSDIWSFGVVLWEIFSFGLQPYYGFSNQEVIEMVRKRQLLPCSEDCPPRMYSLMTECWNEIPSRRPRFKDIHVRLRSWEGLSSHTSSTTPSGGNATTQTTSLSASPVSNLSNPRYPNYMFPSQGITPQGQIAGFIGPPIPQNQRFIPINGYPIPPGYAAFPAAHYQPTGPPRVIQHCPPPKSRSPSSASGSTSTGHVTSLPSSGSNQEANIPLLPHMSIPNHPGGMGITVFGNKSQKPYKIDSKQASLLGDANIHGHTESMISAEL
For test [8], the target named is T3, human/cynomolgus monkey ROR1 protein (Acro Biosystems, Cat. No.: RO1-H522y) (human/cynomolgus monkey, UniProt Q01973 30-403).
T3 construct: Bought SPR analyte
T3 sequence (Q01973 30-403 limits assumed): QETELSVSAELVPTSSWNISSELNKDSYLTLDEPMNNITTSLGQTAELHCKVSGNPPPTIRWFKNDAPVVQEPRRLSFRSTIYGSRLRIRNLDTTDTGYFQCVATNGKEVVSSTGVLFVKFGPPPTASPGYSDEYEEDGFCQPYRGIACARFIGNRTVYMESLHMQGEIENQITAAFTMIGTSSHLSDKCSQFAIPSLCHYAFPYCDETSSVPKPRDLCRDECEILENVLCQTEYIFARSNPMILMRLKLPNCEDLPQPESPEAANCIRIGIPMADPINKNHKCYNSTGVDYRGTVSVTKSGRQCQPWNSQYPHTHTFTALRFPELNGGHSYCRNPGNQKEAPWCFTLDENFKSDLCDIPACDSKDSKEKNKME
Put plainly: SPR (Biacore), antibody captured on anti-hIgG CM5 chip, ROR1 protein as analyte, method of Example 5. (SPR reads the build-up and loss of mass on a sensor chip optically.)

Test [9] deals with T1, ROR1 naturally expressed on human tumor …. Description: FACS on A549 cells naturally expressing ROR1.
Test [10] shares this target. Description: FACS on PA-1 cells naturally expressing ROR1. This is another data set of the same source.
Test [11] shares this target. Put plainly: FACS on SW620 cells naturally expressing ROR1. This is another data set of the same source.
Test [12] shares this target. Put plainly: FACS on Jeko-1 cells naturally expressing ROR1.
The target of test [13] is T2, human ROR1 on stably transfected cells …. Put plainly: cell-based or functional assay. This is another data set of the same source.
Test [14] has as its target T1, ROR1 naturally expressed on human tumor …. Description: FACS on Jeko-1 cells naturally expressing ROR1. The source holds these as a separate data set.
The target is the same in test [15]. Description: FACS on Jeko-1 cells naturally expressing ROR1. This is another data set of the same source.
For test [16] the target is unchanged. Put plainly: FACS on Jeko-1 cells naturally expressing ROR1. This is another data set of the same source.
Test [17] deals with T3, human/cynomolgus monkey ROR1 protein …. Description: SPR (Biacore), antibody captured on anti-hIgG CM5 chip, ROR1 protein as analyte, 1:1 model.

What is called EC50 is the concentration that produces a half-maximal response. Usually Kd stands for the constant that tells how readily two partners part at equilibrium. In general, koff refers to a measure of how fast the partners let go of each other. One may read the kon as the second-order rate constant of association.

T1 sequence (Q01973 30-937): as the sequence (Q01973 30-937 limits assumed) above

B1: UC-961 (antibody, V domains shown)
VH: QVQLQESGPGLVKPSQTLSLTCTVSGYAFTAYNIHWVRQAPGQGLEWMGSFDPYDGGSSYNQKFKDRLTISKDTSKNQVVLTMTNMDPVDTATYYCARGWYYFDYWGHGTLVTVSS
VL: DIVMTQTPLSLPVTPGEPASISCRASKSISKYLAWYQQKPGQAPRLLIYSGSTLQSGIPPRFSGSGYGTDFTLTINNIESEDAAYYFCQQHDESPYTFGEGTKVEIK
For the molecule B1, the EC50 is 127 pM in test [1]; 25 pM in test [2]; 24 pM in [4]; 25 pM in [5]; 127 pM in test [6]; 35 pM in test [9]. Also, the EC50 in test [10] was 173 pM; in test [11], 25 pM; in test [12], 21 pM; in test [14] it was 19 pM; in test [15] it was 19 pM; in test [16] it was 19 pM. Moreover, the “Top (MFI)” value in [1] is 232000 MFI; in test [2] it was 26500 MFI; in [4], 23900 MFI; in test [5], 26500 MFI; in [6] it was 232000 MFI; in test [9], 75700 MFI. Moreover, the “Top (MFI)” value worked out at 235000 MFI in test [10]; 26500 MFI in test [11]; 91700 MFI in test [12]; 83200 MFI in test [14]; 83200 MFI in test [15]; 66100 MFI in [16]. Besides, in [3], the “ADCC reporter gene assay EC50 (nM), PA-1 target cells, recombinant Jurkat effector cells” value (“ADCC reporter gene assay EC50 (nM)” below) amounted to 0.27 nM. In test [7], the “Internalization EC50 (nM), NCI-H1975-ROR1 cells, pH-dependent endocytosis reagent, FACS” value was 17.7 nM. The results for the Kd in [8] and in test [17] were 1170 pM and 20600 pM, respectively. Further, the koff in test [8] amounted to 0.0018 s⁻¹; in test [17], 0.0273 s⁻¹. The results for the kon in [8] and in [17] were 1.54e+06 M⁻¹ s⁻¹ and 1.33e+06 M⁻¹ s⁻¹, respectively. Moreover, in test [13], the “Internalization EC50 (nM), MDA-MB-468-ROR1 cells, pH-dependent endocytosis reagent, FACS” value came to 2.15 nM. The “Internalization EC50 (nM), NCI-H1993-ROR1 cells, pH-dependent endocytosis reagent, FACS” value in test [13] came out at 2.06 nM.

B2: hz29H5D8-3.2 (antibody, human IgG1, kappa, V domains shown)
VH: QVQLVQSGAEVKKPGSSVKVSCKASGYTFTNYGISWVRQAPGQGLEWMGEIYPRSVNTYYSAKFKGRVTITADKSTSTAYMELSSLRSEDTAVYYCARHYYGSSLDYWGQGTLVTVSS
VL: DIQMTQSPSSLSASVGDRVTITCITSSDIEDDMNWYQQKPGKAPKLLISEGNSLRPGVPSRFSSSGYGTDFTFTISSLQPEDIATYYCLQSDNIFTFGQGTKVEIKR
notes: Humanized, human IgG1/kappa
As to B2, the “ADCC reporter gene assay EC50 (nM)” value in test [3] turned out to be 0.06 nM. The “Internalization EC50 (nM), NCI-H1975-ROR1 cells, pH-dependent endocytosis reagent, FACS” value in [7] came to 5.19 nM. In addition, in [8], the dissociation constant Kd was found to be 197 pM, the koff was 0.000354 s⁻¹ and the kon is 1.79e+06 M⁻¹ s⁻¹. In test [10], it took 87 pM to reach a half-maximal effect (EC50) and the “Top (MFI)” value stood at 244000 MFI. In test [11], a half-maximal effect (EC50) was put at 10 pM and the “Top (MFI)” value worked out at 30700 MFI. In addition, in test [12], the response was half-maximal at 12 pM (EC50) and the “Top (MFI)” value came to 89000 MFI. Besides, in test [13], the “Internalization EC50 (nM), MDA-MB-468-ROR1 cells, pH-dependent endocytosis reagent, FACS” value came to 0.92 nM and the “Internalization EC50 (nM), NCI-H1993-ROR1 cells, pH-dependent endocytosis reagent, FACS” value was determined as 1.18 nM.

B3: hz135A2B10-1.1 (antibody, human IgG1, kappa, V domains shown)
VH: QVQLVESGGGLVQPGGSLRLSCAASGFAFSTYGMAWVRQAPGKGLEWVASIHKGGFSTYYPDNVKGRFTISRDNAKNSLYLQMNSLRAEDTAVYYCARHDWDGAMDYWGQGTLVTVSS
VL: DIQMTQSPSSLSASVGDRVTITCKASQDINSYLNWYQQKPGKAPKTLIYRANRLVDGVPSRFSGSGSGQDYTLTISSLQPEDFATYYCLQFDEFPYTFGQGTKVEIKR
notes: Humanized, human IgG1/kappa
Consider B3, for which, in [1], the response was half-maximal at 166 pM (EC50) and the “Top (MFI)” value was determined as 250000 MFI. For the same molecule, the “ADCC reporter gene assay EC50 (nM)” value in test [3] turned out to be 0.13 nM. Moreover, in test [5], the EC50 was found to be 22 pM and the “Top (MFI)” value came out at 30300 MFI. Besides, the “Internalization EC50 (nM), NCI-H1975-ROR1 cells, pH-dependent endocytosis reagent, FACS” value in test [7] was found to be 14.9 nM. In test [8], binding was put at a Kd of 527 pM, the koff stood at 0.00051 s⁻¹ and the kon was 968000 M⁻¹ s⁻¹. Also, in [13], the “Internalization EC50 (nM), MDA-MB-468-ROR1 cells, pH-dependent endocytosis reagent, FACS” value was determined as 1.39 nM and the “Internalization EC50 (nM), NCI-H1993-ROR1 cells, pH-dependent endocytosis reagent, FACS” value came to 1.16 nM. In test [14], the EC50 is 15 pM and the “Top (MFI)” value was determined as 88300 MFI.

The values above are taken from patent publication EP4772535A1 (Chia Tai Tianqing Pharmaceutical Group Co., Ltd., dated 2026).
